System: T1, CC(=O)N[C@H]1[C@H](Oc2ccc3c(C)cc(=O)oc3c2)O[C@H](CO)[C@@H](O[C@@H]2O[C@H](CO)[C@@H](O)[C@H](O)[C@H]2NC(C)=O)[C@@H]1O
T1 construct: single GH18 catalytic domain C1 (core 1613-1855 and 1940-1988, insertion domain 1856-1939); His-tag purified from Pichia pastoris GS115
Experiment: fluorescence of released 4-methylumbelliferone
Type: biochemical, Ostrinia furnacalis
Conditions: pH 6.0, 20 mM sodium phosphate, 303 K, 20 min, 30.0 °C
From the text: fluorescence of released 4-methylumbelliferone on OfChtII-C1

Substance: OfChtII-C1 (Ostrinia furnacalis; A1877I/D1864N/D1876G/DEL1865-1874/G1863E/K1875R/N1878H)
- Km: 15.52 ± 0.98 µM
- kcat: 0.5498 ± 0.0108 s⁻¹
- kcat/Km: 35500 M⁻¹ s⁻¹
